The supplement of paper PMC11246515
± gives the standard deviation of the averaged measurements.

Experiment: total protein half-life in vivo (active degradation + dilution); higher = more stable protein
[1] = E. coli NCM3722 delta-lon, growth: N-lim chemostat, doubling time 6 h
[2] = E. coli NCM3722 delta-smpB, growth: N-lim chemostat, doubling time 6 h
[3] = wild type E. coli NCM3722, growth: C-lim chemostat, doubling time 3 h
[4] = wild type E. coli NCM3722, growth: C-lim chemostat, doubling time 6 h
[5] = wild type E. coli NCM3722, growth: C-lim chemostat, doubling time 12 h
[6] = wild type E. coli NCM3722, growth: N-lim chemostat, doubling time 6 h
[7] = wild type E. coli NCM3722, growth: N-lim chemostat, doubling time 12 h
[8] = wild type E. coli NCM3722, growth: P-lim chemostat, doubling time 6 h
[9] = wild type E. coli NCM3722, growth: P-lim chemostat, doubling time 12 h
[10] = E. coli NCM3722 delta-clpP delta-lon delta-hslV, growth: N-lim chemostat, doubling time 6 h
[11] = E. coli NCM3722 delta-clpP, growth: N-lim chemostat, doubling time 6 h
[12] = E. coli NCM3722 delta-hslV, growth: N-lim chemostat, doubling time 6 h

Sequence	total protein half-life in vivo [1]	total protein half-life in vivo [2]	total protein half-life in vivo [3]	total protein half-life in vivo [4]	total protein half-life in vivo [5]	total protein half-life in vivo [6]	total protein half-life in vivo [7]	total protein half-life in vivo [8]	total protein half-life in vivo [9]	total protein half-life in vivo [10]	total protein half-life in vivo [11]	total protein half-life in vivo [12]
MAESFTTTNRYFDNKHYPRGFSRHGDFTIKEAQLLERHGYAFNELDLGKREPVTEEEKLFVAVCRGEREPVTEAERVWSKYMTRIKRPKRFHTLSGGKPQVEGAEDYTDSDD [P0ADN2]	5.14 ± 0.96 h	3.28 ± 0.088 h	2.19 ± 0.043 h	4.55 ± 0.35 h	5.73 h	3.09 ± 0.15 h	5.68 ± 0.092 h	3.14 ± 0.43 h	5.53 ± 0.6 h	–	–	–
MAETKIVVGPQPFSVGEEYPWLAERDEDGAVVTFTGKVRNHNLGDSVNALTLEHYPGMTEKALAEIVDEARNRWPLGRVTVIHRIGELWPGDEIVFVGVTSAHRSSAFEAGQFIMDYLKTRAPFWKREATPEGDRWVEARESDQQAAKRW	4.42 ± 0.088 h	3.5 ± 0.33 h	2.7 ± 0.15 h	5.78 ± 0.33 h	8.46 ± 0.13 h	4.573 ± 0.012 h	6.78 h	6.8 ± 1.3 h	11.1 ± 0.62 h	4.68 ± 0.7 h	3.99 ± 0.26 h	5.32 ± 0.47 h
MAEWSGEYISPYAEHGKKSEQVKKITVSIPLKVLKILTDERTRRQVNNLRHATNSELLCEAFLHAFTGQPLPDDADLRKERSDEIPEAAKEIMREMGINPETWEY [P0A8U6]	6.2 ± 0.13 h	6.26 ± 0.61 h	3.19 ± 0.061 h	5.63 ± 0.29 h	6.09 h	4.87 ± 0.35 h	10.7 ± 6.7 h	4.35 ± 0.99 h	12 ± 4.2 h	> 8 h	5.7 h	5.96 ± 0.098 h
MAFKFKTFAAVGALIGSLALVGCGQDEKDPNHIKVGVIVGAEQQVAEVAQKVAKDKYGLDVELVTFNDYVLPNEALSKGDIDANAFQHKPYLDQQLKDRGYKLVAVGNTFVYPIAGYSKKIKSLDELQDGSQVAVPNDPTNLGRSLLLLQKVGLIKLKDGVGLLPTVLDVVENPKNLKIVELEAPQLPRSLDDAQIALAVINTTYASQIGLTPAKDGIFVEDKESPYVNLIVTREDNKDAENVKKFVQAYQSDEVYEAANKVFNGGAVKGW	6.95 ± 0.8 h	5.84 ± 0.36 h	3.04 ± 0.097 h	6.52 ± 0.23 h	11.6 ± 0.54 h	5.85 ± 0.088 h	12.69 ± 0.014 h	5.99 ± 0.093 h	13 ± 0.76 h	5.86 ± 0.32 h	6.85 ± 0.96 h	6.15 ± 0.22 h
MAFRMSEQPRTIKIYNLLAGTNEFIGEGDAYIPPHTGLPANSTDIAPPDIPAGFVAVFNSDESSWHLVEDHRGKTVYDVASGNALFISELGPLPENVTWLSPEGEFQKWNGTAWVKDTEAEKLFRIREAEETKNNLMQVASEHIAPLQDAADLEIATEEEISLLEAWKKYRVLLNRVDTSTAQDIEWPALP	–	1.99 h	1.9 h	2.42 ± 0.94 h	5.44 h	3.48 h	–	3.08 h	7.47 ± 0.83 h	3.03 h	2.56 h	1.99 h
MAFSQAVSGLNAAATNLDVIGNNIANSATYGFKSGTASFADMFAGSKVGLGVKVAGITQDFTDGTTTNTGRGLDVAISQNGFFRLVDSNGSVFYSRNGQFKLDENRNLVNMQGLQLTGYPATGTPPTIQQGANPTNISIPNTLMAAKTTTTASMQINLNSSDPLPTVTPFSASNADSYNKKGSVTVFDSQGNAHDMSVYFVKTGDNNWQVYTQDSSDPNSIAKTATTLEFNANGTLVDGAMANNIATGAINGAEPATFSLSFLNSMQQNTGANNIVATTQNGYKPGDLVSYQINDDGTVVGNYSNEQTQLLGQIVLANFANNEGLASEGDNVWSATQSSGVALLGTAGTGNFGTLTNGALEASNVDLSKELVNMIVAQRNYQSNAQTIKTQDQILNTLVNLR	–	> 8 h	1.2 ± 0.066 h	2.23 ± 0.38 h	3.51 ± 0.74 h	–	–	–	–	3.24 ± 0.9 h	7.78 h	–
MAFTPFPPRQPTASARLPLTLMTLDDWALATITGADSEKYMQGQVTADVSQMAEDQHLLAAHCDAKGKMWSNLRLFRDGDGFAWIERRSVREPQLTELKKYAVFSKVTIAPDDERVLLGVAGFQARAALANLFSELPSKEKQVVKEGATTLLWFEHPAERFLIVTDEATANMLTDKLRGEAELNNSQQWLALNIEAGFPVIDAANSGQFIPQATNLQALGGISFKKGCYTGQEMVARAKFRGANKRALWLLAGSASRLPEAGEDLELKMGENWRRTGTVLAAVKLEDGQVVVQVVMNNDMEPDSIFRVRDDANTLHIEPLPYSLEE [P0ADE8]	5.31 ± 0.23 h	4.327 ± 0.0059 h	2.8172 ± 0.0011 h	5.45 ± 0.19 h	9.03 ± 1.1 h	5.25 ± 0.67 h	7.936 ± 0.018 h	5.54 ± 0.069 h	11.3 ± 1.9 h	5.041 ± 0.022 h	4.7 ± 0.35 h	5.202 ± 0.032 h
MAGKTMIPLLAFAAWSGTGKTTLLKKLIPALCARGIRPGLIKHTHHDMDVDKPGKDSYELRKAGAAQTIVASQQRWALMTETPDEEELDLQFLASRMDTSKLDLILVEGFKHEEIAKIVLFRDGAGHRPEELVIDRHVIAVASDVPLNLDVALLDINDVEGLADFVVEWMQKQNG	4.48 ± 0.64 h	3.88 ± 0.7 h	3.22 ± 0.15 h	5.23 ± 0.18 h	9.51 h	4.01 ± 0.23 h	5.54 ± 1.1 h	5.85 h	11 ± 0.32 h	4.44 ± 0.4 h	4.61 h	4.37 ± 0.056 h
